The results in this text go back to paper PMC7920261.

Assay [1] addresses SARS-CoV-2 spike receptor-binding domain (RBD) (SARS-CoV-2) (UniProt P0DTC2). The experiment in a line: BLI. For orientation: In BLI a coated tip is dipped into the sample, and binding shifts an interference pattern.
Assay [2] shares this target. The experiment in a line: ELISA. In general terms: ELISA stands for enzyme-linked immunosorbent assay.
The target of assay [3] is SARS-CoV-1 spike receptor-binding domain (RBD) (SARS-CoV-1). The experiment in a line: BLI.

The term Kd denotes the equilibrium constant for the complex coming apart. A lower Kd goes with tighter binding. What is called IC50 is the concentration at which inhibition is half-maximal. High values mean a need for much substance, low ones inhibition by little substance. In turn, CTC-445, recombinant (designed binder) gave an equilibrium dissociation constant (Kd) in assay [1] of 357 nM. Also, the IC50 in assay [2] came to 1700 nM.
Turning to “CTC-445.2, recombinant (designed binder)”, the values for the equilibrium dissociation constant (Kd) in assay [3] and in assay [1] were 7100 nM and 21 nM, respectively. In assay [2], this substance came in with an IC50 of 10.4 nM.
For the substance CTC-445.2d (designed binder), the Kd was determined as 587 nM in assay [3] and 3.5 nM in assay [1]. Besides, in assay [2], the IC50 stood at 0.7 nM.
